From article PMC5114850

Molecular target: recombinant human calmodulin (human), P0DP23
Assay: ITC
Details: remark: other sources report otherwise

Kd: 1680 nM | dH: -7.3 kcal/mol | stoichiometry N: 0.99 sites
Binder: Ac-SQSHPVMKAFCGLLLQSS-NH2 [CaMBP1 peptide of zebrafish STRA6]
